T1: HMG1 B Box peptide amino acids 91-169
T1 construct: also called HMG1 peptide 91-169
T1 peptide: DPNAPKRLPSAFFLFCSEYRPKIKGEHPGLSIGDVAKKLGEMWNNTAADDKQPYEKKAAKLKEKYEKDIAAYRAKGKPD

T2: HMG1 B Box peptide amino acids 150-183
T2 peptide: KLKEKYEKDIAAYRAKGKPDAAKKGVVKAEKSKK

T3: recombinant HMG1 purified from E. coli as a calmodulin binding protein (CBP) fusion protein (human, UniProt A9RA84 1-215 (Papio anubis entry))
T3 construct: also called rHMG1; rHMGB1
T3 sequence: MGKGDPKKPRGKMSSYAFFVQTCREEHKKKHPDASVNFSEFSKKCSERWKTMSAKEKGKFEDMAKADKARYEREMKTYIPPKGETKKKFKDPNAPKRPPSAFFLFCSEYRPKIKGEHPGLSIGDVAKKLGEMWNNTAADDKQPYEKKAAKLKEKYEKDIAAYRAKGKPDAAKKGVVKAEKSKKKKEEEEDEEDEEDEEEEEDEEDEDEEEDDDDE

T4: HMGB1 in sera of septic peritonitis mice (mouse, UniProt P63158 1-215)
T4 construct: also called HMGB1 from sepsis sera (ELISA); peritonitis sera
T4 sequence (looked up): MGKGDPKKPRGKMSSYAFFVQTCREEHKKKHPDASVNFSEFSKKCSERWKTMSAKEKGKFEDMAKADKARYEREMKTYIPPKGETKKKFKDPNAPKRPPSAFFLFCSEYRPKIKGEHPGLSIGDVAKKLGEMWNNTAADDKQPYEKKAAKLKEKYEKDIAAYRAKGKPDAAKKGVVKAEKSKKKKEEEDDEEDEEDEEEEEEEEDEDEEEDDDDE

B1: anti-HMG1 antibody S2 (antibody, V domains shown)
VH: EVQLLESGGGLVQPGGSLRLSCAASGFTFSGYMMVWVRQAPGKGLEWVSRISPSGGQTGYADSVKGRFTISRDNSKNTLYLQMNSLRAEDTAVYYCAREEGGSYGAFDIWGQGTMVTVSS
VL: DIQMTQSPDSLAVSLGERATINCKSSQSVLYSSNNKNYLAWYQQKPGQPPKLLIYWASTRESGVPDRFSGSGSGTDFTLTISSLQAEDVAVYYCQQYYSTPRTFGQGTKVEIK
notes: also called ATCC PTA-6142
B2: anti-HMG1 antibody S6 (antibody, V domains shown)
VH: EVQLLESGGGLVQPGGSLRLSCAASGFTFSWYDMSWVRQAPGKGLEWVSRISPSGGYTMYADSVKGRFTISRDNSKNTLYLQMNSLRAEDTAVYYCARLEVGATSGGTAFDIWGQGTMVTVSS
VL: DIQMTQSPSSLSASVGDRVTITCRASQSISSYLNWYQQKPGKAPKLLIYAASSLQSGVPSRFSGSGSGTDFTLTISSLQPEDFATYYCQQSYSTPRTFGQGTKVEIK
notes: also called ATCC PTA-6143
B3: anti-HMG1 antibody S16 (antibody, V domains shown)
VH: EVQLLESGGGLVQPGGSLRLSCAASGFTFSWYSMLWVRQAPGKGLEWVSYISPSGGFTNYADSVKGRFTISRDNSKNTLYLQMNSLRAEDTAVYYCARWDYNSGWYYDHWGQGTLVTVSS
VL: DIQMTQSPDTLSLSPGERATLSCRASQSVNSRNLAWYQQKPGQAPRLLIYGASTRATGIPDRFSGSVSGTEFTLTISSLQPDDFATYYCQQYNSYFTFGQGTKLEIK
notes: also called ATCC PTA-6259
B4: anti-HMG1 antibody G4 (antibody, V domains shown)
VH: EVQLLESGGGLVQPGGSLRLSCAASGFTFSWYDMTWVRQAPGKGLEWVSSISPSGGYTKYADSVKGRFTISRDNSKNTLYLQMNSLRAEDTAVYYCTTEFYDYLDVWGKGTTVTVSS
VL: DIQMTQSPGTLSLSPGEGATLSCRASQSVSSTYLAWYQQKPGQAPRLLIYEASKRATGTPARFSGSGSGTDFTLSISSLEPEDFAVYYCQHRHNWPPQWTFGQGTKVEVK
notes: also called ATCC PTA-6258

Columns and labels:
[1] = target: T1, HMG1 B Box peptide amino acids 91-169; experiment: ELISA, wells coated with HMG1 B Box peptide 91-169 at 10 ug/ml
In short: (§1)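 Biotinylated peptides captured on avidin-coated wells (1% BSA block, 30 min, room temperature), then antibodies added in serial dilution from 10 μg/ml; for the coated-peptide format, plates blocked with 4% milk/PBS 1 h at 37 °C. Bound antibody detected with anti-human IgG-HRP and TMB, absorbance at 450 nm.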

[2] = target: T2, HMG1 B Box peptide amino acids 150-183; experiment: ELISA, wells coated with HMG1 B Box peptide 150-183 at 10 ug/ml
In short: as §1

[3] = target: T3, recombinant HMG1 purified from E. coli …; experiment: sandwich ELISA: antibody captured on anti-human IgG Fc, rHMG1 2 ug/ml in solution, mouse anti-HMGB1 and anti-mouse IgG-HRP, OD 450
Protocol: Sandwich ELISA (soluble HMG1): Immunoplates (EIA/RIA plate, High binding, Costar) were coated with anti human IgG Fc at 10 μg/ml in PBS (pH 7.2) and incubated at 4° C. overnight. The coating reagent was removed and the plates were rinsed briefly with PBS. The plates were then blocked with 4% milk for 1 hour at 37° C. and rinsed with PBS. The anti-HMG1 antibodies were diluted in 4% milk. For serial dilutions, the antibodies were used at a starting concentration of 20 μg/ml. The diluted anti-HMG1 antibodies were then added into plate and incubated for 1 hr at 37° C. The plate was then washed 10 times with PBST (PBS/0.1% tween 20) and incubate with antigen (HMGB1, 2 μg/ml; or 0.7 μg/ml for native HMGB1) in 4% milk and incubated at 37° C. for 1 h. The plate was then wash 10 times and incubated with mouse anti-HMGB1, 1 μg/ml in 4% milk at 37° C. for 1 h. The plate was washed 10 times and incubated with anti-mouse IgG-HRP at 1:1000 at 37° C. for 1 h. The plate was then washed and developed. HRP activity was detected with Sureblue HRP substrate (KPL). Plates were read at 450 nm using a Kinetic Microplate Reader (Molecular Devices).

[4] = target: T4, HMGB1 in sera of septic peritonitis mice; experiment: sandwich ELISA: antibody (10 ug/ml) captured on anti-human Fc, sample added, mouse anti-HMGB1 and anti-mouse-HRP, OD 450
Protocol: HMGB1 Detection from Biological Samples: For detection of the HMGB1 from AA joint homogenates and peritonitis sera, sandwich ELISA was performed. Goat anti-human Fc (Pierce) 14 μg/ml in PBS was coated on Immunlon IV microtiter plate over night at 4° C. After washing and blocking with 5% milk 1 hr at room temperature, G4 or S6 in blocking buffer (10 μg/ml) were added to each well of the blocked plate. The plate was washed 1 hour later and 25 μl of AIA homogenates containing 0.8 μg/ml of HMGB1 or peritonitis sera containing 7 μg/ml of HMGB1 in 0.5 M NaCl/blocking buffer were added to the wells at two fold serial dilutions. The unbound materials were removed by washing one hr after incubation. The bound HMGB1 was detected by a mouse anti-HMGB1 antibody at 2 μg/ml followed by an anti-mouse antibody conjugated with horseradish peroxidase. Mouse peritonitis sera was obtained by heart puncture 7 days after infection with heat killed staphylococcus aureus. Joint lysate was prepared from the whole paw of AIA rats as described in Example 6 below. Human sepsis sera were purchased from a commercial source.

[5] = target: T1, HMG1 B Box peptide amino acids 91-169; experiment: ELISA, wells coated with HMG1 B Box peptide 91-169 at 10 ug/ml, anti-human IgG-HRP, OD 450
Protocol: The plate was then blocked with 4% milk powder dissolved in PBS at 37° C. for 1 hour. The blocking solution was removed and replaced with human anti-HMG1 antibodies at various concentrations (see FIGS. 5A-B). […] HRP activity was detected with Sureblue HRP substrate (KPL). Plates were read at 450 nm using a Kinetic Microplate Reader (Molecular Devices). […] After washing and blocking with 1% BSA in PBS, the biotinylated peptides were individually added into the avidin coated wells and incubated for 30 min at room temperature. The serial diluted antibody G4, S16 and S6 at the initial concentration at 10 μg/ml were then transferred into the wells followed by adding mouse anti human IgG-HRP conjugate (Pierce). Detection was accomplished by adding 50 μl of tetramethylbenzidine (TMB) substrate (KPL) and the absorbance was read at […].

Binder | binding result [1] | binding result [2] | EC50 (read off the curve) [3] [µg/mL] | binding result [4] | binding result [5]
B1 | no binding (tested: 10 ug/ml (log 1.00)) | no binding (tested: 10 ug/ml (log 1.00)) | ~0.08 | – | –
B2 | no binding (tested: 10 ug/ml (log 1.00)) | no binding (tested: 10 ug/ml (log 1.00)) | – | binds | –
B3 | – | – | ~0.08 | – | binds
B4 | – | no binding (tested: 10 ug/ml (log 1.00)) | – | – | binds

Source: patent US20080311122A1 (AstraZeneca / MedImmune, published 2008)
